The record followed here is patent publication US20230374088A1 (GENERAL HOSPITAL, published 2023).

Residue numbers refer to the chain shown, from its start. Numbers in names are those of the source.

Assay in all cases: pull-down on anti-FLAG beads, anti-c-myc blot, Expi293F cells
Test [1] deals with T1, c-Myc-Gli2 (418-594aa) ZF3-mut (H503A, R516A, K521A) (human, UniProt P10070 418-594).
T1 construct: also called ZF-3 (H503A/R516A/K521A); not shown: c-myc tag from pCMV-BICEP-4 (MCS2)
T1 sequence (looked up): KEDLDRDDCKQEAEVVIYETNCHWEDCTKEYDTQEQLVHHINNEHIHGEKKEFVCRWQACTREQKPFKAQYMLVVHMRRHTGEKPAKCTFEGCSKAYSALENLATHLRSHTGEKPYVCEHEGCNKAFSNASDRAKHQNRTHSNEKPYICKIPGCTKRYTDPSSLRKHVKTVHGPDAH
The source says:
(§1) Immunoprecipitation (IP) using anti-FLAG magnetic beads. Input (cell lysate), FT (flow through), wash and beads samples were immunoblotted (IB) with anti c-Myc antibody to detect Gli2. […] The blots are representative images of a minimum of three repeats. Gli2-ZF mutants are as follows: ZF2-mut (H493A, R496A), ZF3-mut (H503A, R516A, K521A), ZF4-mut (R550A, K552A, R556A). Kif7-CC mutants are as follows: S1-mut (E500A, E501A, E502A, D505A), S2-mut (E511A, E515A), S3-mut1 (E526A, E529A) and S3-mut2 (E530A, R535A).
(§2) To narrow down the residues that participate in binding, we analyzed the model of the Kif7-SCC:Gli2-ZF complex using PDBsum server (De Beer et al., Nucleic acids research, 42, D292-D296, 2014). We performed alanine scanning mutagenesis of the charged residues on Gli2-ZF that came up as part of the binding interface in the PDBsum analysis and analyzed their binding with pull-down assay (FIG. 3D). […] We systematically mutated the residues to alanine and performed the pull-down assay with Gli2-ZF.

Test [2] addresses T2, c-Myc-Gli2 (418-594aa) ZF2-mut (H493A, R496A) (human, UniProt P10070 418-594).
T2 construct: also called Gli2 ZF-2 (H493A/R496A); not shown: c-myc tag from pCMV-BICEP-4 (MCS2)
T2 sequence (looked up): T1 sequence (looked up) with H76A, R79A, A86H, A99R, A104K
Excerpt: as §1, §2

The target of the next test is T3, c-Myc-Gli2 (418-594aa) (human, UniProt P10070 418-594).
T3 construct: Expressed in Expi293F cells for the pull-down; also called Gli2-ZF (in the pull-down); not shown: c-myc tag from pCMV-BICEP-4 (MCS2), N-terminal by the name
T3 sequence (looked up): T1 sequence (looked up) with A86H, A99R, A104K
Excerpt: as §1, §2

B1: FLAG-Kif7-CC (460-600aa) (other)
chain: PDSGIESASVEDQAAQGAGGRKEDEGAQQLLTLQNQVARLEEENRDFLAALEDAMEQYKLQSDRLREQQEEMVELRLRLELVRPGWGGPRLLNGLPPGSFVPRPHTAPLGGAHAHVLGMVPPACLPGDEVGSEQRGEQVTN
notes: Expressed in Expi293F cells for the pull-down; also called Kif7(460-600aa); not shown: FLAG tag from pCMV-BICEP-4 (MCS1), N-terminal by the name
For B1, the binding result in test [1] and in test [2] was “no binding” in each case.

B2: FLAG-Kif7-CC (460-600aa) S1-mut (E500A, E501A, E502A, D505A) (other)
chain: B1 chain with E41A, E42A, E43A, D46A
notes: also called Kif7-CC S1; not shown: FLAG tag from pCMV-BICEP-4 (MCS1)
For the molecule B2, the binding result in the test with c-Myc-Gli2 (418-594aa) is recorded as “no binding”.
